The results in this text go back to PMC5114558, “Reader domain specificity and lysine demethylase-4 family function” (Nature Communications, 2016).

Assay [1] addresses T1, H3 (17-32) K23me3 peptide, fluorescein-labelled, P68431.
T1 chain: RKQLATKAARKSAPAT
As to the kind of experiment: fluorescence polarization. Particulars: chain shown with the change. On the technique in general: Fluorescence polarisation rises when a labelled molecule tumbles more slowly, as on binding a larger partner.

In assay [2] the target is H3 (17-32) K23me3 peptide, fluorescein-labelled (UniProt P68431). As to the kind of experiment: fluorescence polarisation; fluorescein-labelled histone peptide 3 nM, KDM4 DTD titrated 0.1-100 μM; 30 mM HEPES, 150 mM NaCl pH 7.4, 0.01% Triton X-100.

B1: KDM4A double tudor domain (KDM4A-DTD), HaloTag-tagged, wild type, O75164 N931D; D939R; D945R (protein)
chain: ALQSITAGQKVISKHKNGRFYQCEVVRLTTETFYEVDFDDGSFSRNLYPERIVSQDCLQFGPPAEGEVVQVRWTDGQVYGAKFVASHPIQMYQVEFEDGSQLVVKRDDVYTLDEELP
Broadly, the Kd is the concentration at which binding is half-saturated. Low values mean tighter binding, high ones weaker binding. With B1, the Kd in assay [1] was found to be 3.1 µM.

B2: KDM4A-DTD N931R (domain or fragment)
chain: ALQSITAGQKVISKHKNGRFYQCEVVRLTTETFYEVRFDDGSFSDNLYPEDIVSQDCLQFGPPAEGEVVQVRWTDGQVYGAKFVASHPIQMYQVEFEDGSQLVVKRDDVYTLDEELP
The molecule B2 registered a Kd in assay [2] of 73.9 µM.

B3: KDM4A-DTD N931D (domain or fragment)
chain: ALQSITAGQKVISKHKNGRFYQCEVVRLTTETFYEVDFDDGSFSDNLYPEDIVSQDCLQFGPPAEGEVVQVRWTDGQVYGAKFVASHPIQMYQVEFEDGSQLVVKRDDVYTLDEELP
As to B3, the dissociation constant (Kd) in assay [2] stood at 0.85 µM. This Kd is about 87-fold lower than that of the molecule before.

B4: KDM4A-DTD N940A (domain or fragment)
chain: ALQSITAGQKVISKHKNGRFYQCEVVRLTTETFYEVNFDDGSFSDALYPEDIVSQDCLQFGPPAEGEVVQVRWTDGQVYGAKFVASHPIQMYQVEFEDGSQLVVKRDDVYTLDEELP
The molecule B4 returned a Kd in assay [2] of 57.4 µM.

B5: KDM4A-DTD Y973A (aromatic cage substitution) (domain or fragment)
chain: ALQSITAGQKVISKHKNGRFYQCEVVRLTTETFYEVNFDDGSFSDNLYPEDIVSQDCLQFGPPAEGEVVQVRWTDGQVAGAKFVASHPIQMYQVEFEDGSQLVVKRDDVYTLDEELP
For B5, the Kd in assay [2] is 285 µM.
